One protein from article PMC3472039 (Journal of molecular biology, 2012) can be followed below.

This data set concerns the molecule itself. Put plainly: crystal structure.

One may read the stoichiometry N as a count of units in the complex or per binding partner.

Square brackets hold non-standard residues; d marks the D form. Ends that are not written are not given here. SeMet = C[Se]CC[C@H](N)C(=O)O

B1: SeMet-QkI-Qua1(14-67) C35S (domain or fragment, UniProt Q9QYS9 14-67, looked up)
chain: TPDYL[SeMet]QL[SeMet]NDKKL[SeMet]SSLPNFSGIFNHLERLLDEEISRVRKD[SeMet]YNDTLNGSTEK
As to B1, the “stoichiometry N” value was determined as 2.
